According to paper PMC11228995:
Values joined by “and” are separate entries in the source; they are usually repeats but may differ in a detail not shown here. Identical values can stand only once.

Assays:
CXCL4 [1] = assay: native MS; pure chemokine, 20 μM in 250 mM ammonium acetate buffer, nanoelectrospray, Waters Synapt G2-S, ion mobility separation bypassed
CXCL4 [2] = assay: native MS; chemokine (20 μM solution in 250 mM ammonium acetate) mixed with fondaparinux at 1:1 molar ratio, nanoelectrospray, spectra deconvoluted in UniDec

stoichiometry N (CXCL4 [1]): 4
stoichiometry N (CXCL4 [2]): 4 and 2
Substance: CXCL4 (natural protein)
